Test results published in publication PMC9672302, “H2A.Z deposition by SWR1C involves multiple ATP-dependent steps” (Nature Communications, 2022).
Values belong to the molecule of their own block, whether it stands above or below them.

Columns and labels:
SWR1C [1] = biological target: T1, SWR1C (Saccharomyces cerevisiae, UniProt Q05471); test: fluorescence polarization of SWR1C binding to labelled H2A nucleosome with added nucleotide (no constant for the nucleotide); settings: 1 mM ADP, 10 nM 77N4-ATTO 647N nucleosome, 5 mM MgCl2, pH 7.6, room temperature; indirect, nucleotide modulates nucleosome affinity
T1 construct: gene SWR1; native multi-subunit remodeler complex purified from a yeast strain with FLAG-tagged Swr1, eluted with 3x FLAG peptide; tag kept; with SWR1-complex protein 5; SWR1-complex protein 3; Vacuolar protein sorting-associated protein 71; Actin-like protein ARP6; Vacuolar protein sorting-associated protein 72; SWR1-complex protein 4; SWR1-complex protein 7; Protein AF-9 homolog; Bromodomain-containing factor 1; Actin-related protein 4; Actin; RuvB-like protein 1; RuvB-like protein 2

[2] = biological target: SWR1C-nucleosome (SWR1C bound to the tethered biotinTEG-117N4-ATTO 647N H2A nucleosome) (S. cerevisiae | not stated (X. laevis H3.1 or H. sapiens H3.2 C110A made) | X. laevis | yeast (endogenous in the FLAG-tagged Swr1 yeast strain)) (UniProt P04911); test: single-molecule fluorescence colocalisation (TIRF, smFRET set-up); biotinTEG-117N4-ATTO 647N nucleosomes incubated with 25 nM SWR1C and tethered on a streptavidin-coated slide; 50 nM Cy3B-labeled H2A.Z-H2B dimer, 50 nM Chz1, 200 uM ATP, 10 nM 77N0 nucleosome in solution; room temperature; 5 min of acquisition
[3] = biological target: H2A.Z nucleosomal product with SWR1C (tethered biotinTEG-117N4-ATTO 647N nucleosome after dimer exchange) (S. cerevisiae | not stated (X. laevis H3.1 or H. sapiens H3.2 C110A made) | X. laevis | yeast (endogenous in the FLAG-tagged Swr1 yeast strain)) (UniProt Q12692); test: single-molecule fluorescence colocalisation (TIRF, smFRET set-up); tethered biotinTEG-117N4-ATTO 647N, Cy3B-labeled H2A nucleosome with 30 nM SWR1C, 70 nM H2A.Z-H2B dimer, 70 nM Chz1; 0.5 uM ATP; time from the end of eviction (loss of FRET) to the loss of the Cy3B signal, Kaplan-Meier half-life; room temperature
[4] = biological target: H2A.Z nucleosomal product with SWR1C (tethered biotinTEG-117N4-ATTO 647N nucleosome after dimer exchange) (S. cerevisiae | not stated (X. laevis H3.1 or H. sapiens H3.2 C110A made) | X. laevis | yeast (endogenous in the FLAG-tagged Swr1 yeast strain)) (UniProt Q12692); test: single-molecule fluorescence colocalisation (TIRF, smFRET set-up); as a6 but with 100 uM ATP
[5] = biological target: H2A nucleosome (77N4-ATTO 647N nucleosome) (S. cerevisiae | not stated (X. laevis H3.1 or H. sapiens H3.2 C110A made) | X. laevis) (UniProt P04911); test: fluorescence polarisation; as a1 but with 1 mM ADP; apparent Kd
[6] = biological target: H2A nucleosome (77N4-ATTO 647N nucleosome) (S. cerevisiae | not stated (X. laevis H3.1 or H. sapiens H3.2 C110A made) | X. laevis) (UniProt P04911); test: fluorescence polarisation; as a1 but with 1 mM AMP-PNP; apparent Kd
[7] = biological target: H2A nucleosome (77N4-ATTO 647N nucleosome) (S. cerevisiae | not stated (X. laevis H3.1 or H. sapiens H3.2 C110A made) | X. laevis) (UniProt P04911); test: fluorescence polarisation; as a1 but with 1 mM ATP; apparent Kd
[8] = biological target: H2A.Z nucleosome (77N4-ATTO 647N nucleosome) (S. cerevisiae | not stated (X. laevis H3.1 or H. sapiens H3.2 C110A made) | X. laevis) (UniProt Q12692); test: fluorescence polarisation; 0-250 nM SWR1C titrated to 10 nM 77N4-ATTO 647N nucleosome, no nucleotide; 25 mM HEPES-KOH pH 7.6, 70 mM KCl, 0.2 mM EDTA, 5 mM MgCl2, 1 mM DTT, 0.1 mg/mL BSA; 20 min, room temperature; quadratic binding equation, global fit; apparent Kd
[9] = biological target: H2A nucleosome (77N4-ATTO 647N nucleosome) (S. cerevisiae | not stated (X. laevis H3.1 or H. sapiens H3.2 C110A made) | X. laevis) (UniProt P04911); test: as above
[10] = tested on: SWR1C (SWR1 complex) (Saccharomyces cerevisiae (FLAG-tagged Swr1 strain)); test: fluorescence polarization; settings: FP: 25 mM HEPES-KOH pH 7.6, 70 mM KCl, 0.2 mM EDTA, 5 mM MgCl2, 1 mM DTT, 0.1 mg/mL BSA, 10 nM nucleosome, 1 mM nucleotide where added, 20 min, room …
SWR1C [11] = biological target: T1, SWR1C; test: single-molecule FRET of H2A/H2B eviction from immobilised nucleosomes; type: biochemical; settings: co-substrates yeast/Xenopus hybrid nucleosome 117N4, H2A.Z/H2B dimer, chaperone Chz1; 0-100 uM ATP; 4 mM MgCl2, pH 7.6, room temperature

Molecule: Nc1ncnc2c1ncn2[C@@H]1O[C@H](COP(=O)(O)OP(=O)(O)O)[C@@H](O)[C@H]1O [ADP]
fluorescence polarization of SWR1C binding to labelled H2A nucleosome with added (SWR1C [1]): a decrease in binding was also observed with ADP

mean lifetime of the bound state [2]: 34 s
percent of nucleosomes bound within 10 s [2]: 50%
percent of nucleosomes that bound at least one dimer in 5 min [2]: 89%
Molecule: Cy3B-H2A.Z/H2B dimer (from UniProt P02293 5-131) (complex)

half-life of release (t release) [3]: 3.65 min
half-life of release (t release) [4]: 1.6 min
Molecule: Cy3B-labeled H2A/H2B dimer (from UniProt P02293 5-131) (complex)

Kd [5]: 21 nM
Kd [6]: 14 nM
Kd [7]: 31 nM
Kd [8]: 25 nM
Kd [9]: 12 nM
Molecule: SWR1C (from UniProt Q05471 1-1514; P38326 1-303; Q12509 1-438; Q03433 1-280; P31376 1-625) (complex)

Molecule: 77N4 H2A nucleosome (ATTO 647N)
Kd ([10]; 1 mM ADP): 21 nM
Kd ([10]; 1 mM AMP-PNP): 14 nM
Kd ([10]; 1 mM ATP): 31 nM
Kd ([10]; no nucleotide (apo), 5 replicates): 12 nM

Molecule: 77N4 H2A.Z nucleosome (ATTO 647N)
Kd ([10]; no nucleotide (apo)): 25 nM

Molecule: Nc1ncnc2c1ncn2[C@@H]1O[C@H](COP(=O)(O)OP(=O)(O)OP(=O)(O)O)[C@@H](O)[C@H]1O [ATP]
single-molecule FRET of H2A/H2B eviction from immobilised nucleosomes (SWR1C [11]): Priming is ATP-sensitive, as the duration of the priming phase (tprime) decreased with increasing ATP concentration
